In paper PMC7247563, “Glycosylation Tunes Neuroserpin Physiological and Pathological Properties” (International Journal of Molecular Sciences, 2020):

Biological target: the molecule itself
Assay: SEC; 63.8 uM NS or gNS in 10 mM Tris-HCl pH 8.0, 50 mM KCl, incubated at 45 °C; aliquots at different times run on a Superdex 200 Increase 10/300 GL column; heat-induced polymerisation

B1: bacterially expressed human neuroserpin (non-glycosylated) (natural protein, UniProt Q99574 17-410, looked up)
chain: TGATFPEEAIADLSVNMYNRLRATGEDENILFSPLSIALAMGMMELGAQGSTQKEIRHSMGYDSLKNGEEFSFLKEFSNMVTAKESQYVMKIANSLFVQNGFHVNEEFLQMMKKYFNAAVNHVDFSQNVAVANYINKWVENNTNNLVKDLVSPRDFDAATYLALINAVYFKGNWKSQFRPENTRTFSFTKDDESEVQIPMMYQQGEFYYGEFSDGSNEAGGIYQVLEIPYEGDEISMMLVLSRQEVPLATLEPLVKAQLVEEWANSVKKQKVEVYLPRFTVEQEIDLKDVLKALGITEIFIKDANLTGLSDNKEIFLSKAIHKSFLEVNEEGSEAAAVSGMIAISRMAVLYPQVIVDHPFFFLIRNRRTGTILFMGRVMHPETMNTSGHDFEEL
notes: human neuroserpin (NS), wild type, from the pQE81L plasmid carrying the human NS gene; theoretical mass of the construct 46,271 Da; Samples were a mix of native NS and NS cleaved at Arg362; also called NS; bacterially purified NS; source: E. coli BL21 Rosetta (DE3) pLysS, purified (HiTrap Chelating HP, Superdex200 gel filtration)
Question: Does B1 bind?
Answer: Result: binds
